Laboratory results as given in the supplement of paper PMC12042874.
± gives the uncertainty stated by the source.

Assay: amyloid nucleation score (Sup35N fusion, yeast selection) (log enrichment); library NNK1; higher = more nucleation; inactive = no reads after selection
Outline: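 On medium lacking adenine and uracil, psi-negative yeast expressing peptides of 20 random codons fused to Sup35N were grown 7 days at 30°C after a 24-hour induction with 100 μM copper sulfate. Illumina sequencing of input and output plasmid inserts gave the reads, and sequences under 100 input reads were excluded. The nucleation score is the DiMSum log enrichment of output over input reads, centred on the mode score of non-aggregating sequences.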

DIKYECIS and DKAFLWQFEELVAA are within error of each other in amyloid nucleation score: 0.204 ± 0.34 for the first, -0.331 ± 0.72 for the second.

DKEMECIYEYAL and DKFLRWVNNVCFKSWTAIAP are within error of each other in amyloid nucleation score: 0.523 ± 0.55 for the first, 0.609 ± 0.57 for the second.

DKHSLKILYKCGHPSTDNGQ and DKLKLNRVRSSISSYNKQNK are within error of each other in amyloid nucleation score: 1.51 ± 0.5 for the first, 1.06 ± 0.28 for the second.

DKPFCFILNYNSVYDCVMSV and DKTECDQCIKSG are within error of each other in amyloid nucleation score: 0.331 ± 1.2 for the first, -0.691 ± 0.42 for the second.

DKVMGRTQLTTCQYATGRCR and DLFLRYSLAGYYAMESPADS are within error of each other in amyloid nucleation score: 0.406 ± 0.3 for the first, 0.331 ± 0.33 for the second.

DLFYINIVMKSFVHWVNHLH and DLLFAIMMS are within error of each other in amyloid nucleation score: 0.416 ± 0.28 for the first, -0.631 ± 1.2 for the second.

DLQSSSDNLLGYMCFSCCKH and DLSSRFGRVETERGGKVKCQ are within error of each other in amyloid nucleation score: -0.463 ± 0.98 for the first, -0.299 ± 1.1 for the second.

DLTGKVRYQSVLPFVASPSM and DLVAVQESWTLYSLVPQLFY are within error of each other in amyloid nucleation score: 0.11 ± 0.62 for the first, -0.103 ± 0.4 for the second.

DLYGRLLNWNTPYKRRWKNR and DMCLWARG are within error of each other in amyloid nucleation score: -0.491 ± 0.46 for the first, 0.732 ± 1 for the second.

Going from DMDTQEFLYCSSVKFGSTKD to DMHLMSGDLGMRVRPGGSAV, the amyloid nucleation score falls from 5.408 ± 0.047 to 0.371 ± 0.7.

DMPFSDFMN and DMRYSRSCYTGCTDYYTCLG are within error of each other in amyloid nucleation score: -0.096 ± 0.47 for the first, -0.546 ± 0.4 for the second.

Compared with DNAYDRVGTQGSAWFCGDCL, DNDSWYKYPCFWLCYFPACN is higher in amyloid nucleation score: -0.655 ± 0.64 for the first, 5.17 ± 0.052 for the second.

DNNLGLSWLSILAGFGH and DNRLEYSAGLVRVTRDAKGE are within error of each other in amyloid nucleation score: -1.23 ± 0.91 for the first, -0.106 ± 0.97 for the second.

DNVCRYGRKCWKRERESGQT and DNYGCYCL are within error of each other in amyloid nucleation score: 0.105 ± 0.42 for the first, 0.802 ± 0.72 for the second.

DPGVNALVLLILKTWDRDYE and DPPTL are within error of each other in amyloid nucleation score: -0.638 ± 0.69 for the first, 0.409 ± 0.42 for the second.

DQIGDYLRFACSDKDYS and DQVQGFISFLMLFKDFVSYG are within error of each other in amyloid nucleation score: 0.039 ± 0.76 for the first, -0.028 ± 0.33 for the second.

Compared with DRFLCGWSLPSC, DRGMMCALVFYRHL is higher in amyloid nucleation score: -0.656 ± 0.61 for the first, 0.691 ± 0.56 for the second.

DRRYVKLLRLYCCILECTKV and DRSRVLSSGETGYDIEVGQS are within error of each other in amyloid nucleation score: -0.18 ± 0.38 for the first, -0.033 ± 0.45 for the second.

DRWLSM and DRYSNTTFNHIA are within error of each other in amyloid nucleation score: -0.025 ± 0.51 for the first, 0.779 ± 0.47 for the second.

DSASL and DSCVFARSIVVNSNSFEVIE are within error of each other in amyloid nucleation score: 0.514 ± 0.79 for the first, 0.061 ± 0.47 for the second.

DSFARYVGVLKRLARLSTYR and DSGVAVQMFEQTTGDPGIEG are within error of each other in amyloid nucleation score: 0.568 ± 0.72 for the first, -0.883 ± 0.76 for the second.

DSRCHSSSGDRPTLAVYT and DSSLEVRRNRTSRLYAHFT are within error of each other in amyloid nucleation score: -0.198 ± 1.7 for the first, -0.218 ± 0.39 for the second.

DSVVCRKYDVIGKCQRRGTC and DSWLVAESSIHAF are within error of each other in amyloid nucleation score: 0.716 ± 0.61 for the first, -0.049 ± 1.5 for the second.

DSYWILSLLWGL and DTAWNLVQSVS are within error of each other in amyloid nucleation score: -0.369 ± 0.19 for the first, 0.496 ± 0.7 for the second.

DTENPSYMNVNCYWRLLFSR and DTGGLYLERARQFKASMFLR are within error of each other in amyloid nucleation score: 0.669 ± 0.4 for the first, 0.229 ± 0.42 for the second.

DTLHSNCCGSWPYDSSKRNV and DVMRYWVMRVVMPAKFKKAY are within error of each other in amyloid nucleation score: 0.95 ± 0.33 for the first, -0.244 ± 1.1 for the second.

DVSRQFYFDYYNIKGLNITK and DVWKAGSVGPRQLVRRGGRR are within error of each other in amyloid nucleation score: 0.536 ± 0.79 for the first, 0.259 ± 0.81 for the second.

DVYTLMGEVDELRSFRIIIR and DWCYYKRADRRTSSESSRAG are within error of each other in amyloid nucleation score: -0.458 ± 0.27 for the first, 0.333 ± 0.99 for the second.

DWLMMDLL and DWMFCTYCVTVFESQNVAVH are within error of each other in amyloid nucleation score: 0.103 ± 1.1 for the first, 0.272 ± 0.27 for the second.

DWNEEACV and DWNYKFMGRRLEHMCQVLM are within error of each other in amyloid nucleation score: 0.432 ± 0.57 for the first, -1.03 ± 1.1 for the second.

DYDIWDAMPAQFQRITMYSV and DYEPLASDAREEDFCNARRG are within error of each other in amyloid nucleation score: -0.243 ± 0.36 for the first, -0.677 ± 0.64 for the second.

DYFWSSSEGWPEFQNIKSIG and DYGAKDHFPIAITKEVMSLN are within error of each other in amyloid nucleation score: -0.07 ± 1.4 for the first, -0.394 ± 1.2 for the second.

DYMDSCGYVDSATRYKVSEM and DYPPIRALVSFDCCAVSTCL are within error of each other in amyloid nucleation score: -0.241 ± 1.1 for the first, 0.922 ± 0.93 for the second.

First: DYPRSIILCWHF
Second: DYSSSFVNCIYKKPGQGMFG
The amyloid nucleation score of the first is lower: -1.39 ± 0.74 for the first, 0.133 ± 0.54 for the second.

DYSVYRSERMCTLRAS and DYTLMRSLESPITDLQSSSG are within error of each other in amyloid nucleation score: -0.279 ± 0.36 for the first, 0.748 ± 0.88 for the second.

EALLWTEGMWHSSGGLYSNV and EANCLFEWSMMLRYSARDGT are within error of each other in amyloid nucleation score: 0.261 ± 0.27 for the first, 0.312 ± 1.4 for the second.

EAVVRRLSEDSCMELSSDCR and EAYFFEFIKYLSAPAGSGGN are within error of each other in amyloid nucleation score: 0.485 ± 0.52 for the first, -0.855 ± 0.98 for the second.

First: ECFSKFLNLRGSPLG
Second: ECYGIR
The amyloid nucleation score of the first is lower: -0.098 ± 0.53 for the first, 0.893 ± 0.26 for the second.

EDPVLSREGCKQVNPWILWG and EDRDTLKGM are within error of each other in amyloid nucleation score: 0.201 ± 1.4 for the first, 0.806 ± 0.57 for the second.

EELTAYMSLDMQLCRNRAAM and EFGRDNHVLVLWMGRAPSDM are within error of each other in amyloid nucleation score: 0.055 ± 0.55 for the first, -0.436 ± 0.55 for the second.

EFKTDPDYT and EFRQMVVSSGSDERGERDKG are within error of each other in amyloid nucleation score: 0.2 ± 0.53 for the first, 0.052 ± 0.29 for the second.

First: EFWWIDICSGCYLFF
Second: EFYVTCFCVRMKTKAYAPLV
The amyloid nucleation score of the first is higher: 6.5 ± 0.074 for the first, 0.106 ± 0.31 for the second.

EGIHKR and EGIIYS are within error of each other in amyloid nucleation score: 0.324 ± 0.66 for the first, -0.692 ± 1.1 for the second.

EGMYC and EHFMSTCKPPDGE are within error of each other in amyloid nucleation score: 0.058 ± 0.34 for the first, 0.927 ± 0.84 for the second.

EHGERAQGPISGMLGRKCIE and EHHGGISGGNKCCSTCKSRR are within error of each other in amyloid nucleation score: 1.04 ± 0.98 for the first, 0.361 ± 1 for the second.

EHLVHLYKFSSAFERVGW and EHSFRNRCEAANWLVWLRVI are within error of each other in amyloid nucleation score: -0.352 ± 0.7 for the first, -0.061 ± 0.51 for the second.

EIDNLHWVLVVNYPTSQFKR and EIVVIASRTASPDFIN are within error of each other in amyloid nucleation score: -0.02 ± 0.39 for the first, 1.01 ± 0.74 for the second.

EKRRNNTSNRSWSGSYFLDT and EKSCATRLA are within error of each other in amyloid nucleation score: 0.111 ± 0.28 for the first, 0.374 ± 0.29 for the second.

Compared with ELASSLIVFVDFSRACELNL, ELKPKAFVVLSDHRHGYKRQ is lower in amyloid nucleation score: 4.95 ± 0.12 for the first, -0.076 ± 0.97 for the second.

Going from ELNDVMRSGSKG to ELSGGA, the amyloid nucleation score rises from 0.992 ± 1 to 3.75 ± 0.1.

ELTGFFFCVRTSKCRIW and ELTRGLWRFGAEWWATQQKT are within error of each other in amyloid nucleation score: 0.533 ± 0.46 for the first, 0.364 ± 0.31 for the second.

First: ELVSS
Second: EMAELLAMRQLLRTKIH
The amyloid nucleation score of the first is lower: -0.455 ± 0.26 for the first, 0.265 ± 0.34 for the second.

EMGSSLYTRHGNVRSLAFGW and EMNVSILKHAYSQALSFARW are within error of each other in amyloid nucleation score: 0.242 ± 0.48 for the first, -0.068 ± 0.45 for the second.

Compared with ENGIGN, ENPDW is higher in amyloid nucleation score: 0.453 ± 0.22 for the first, 1.66 ± 0.73 for the second.

ENPWFMCICYGANRVHVCNG and ENQFTVLSNGFDVIALFSFE are within error of each other in amyloid nucleation score: 0.539 ± 0.33 for the first, 1.07 ± 0.93 for the second.

Going from EPFGLGFRRNDLSYANRVGS to EPSGLLFSTLGTSTYGYIQF, the amyloid nucleation score rises from -0.887 ± 1.3 to 2.27 ± 0.11.

EQAGVRVTDYVAVELLFWRF and EQRVNLISVWIRGDLETPHG are within error of each other in amyloid nucleation score: 0.826 ± 0.39 for the first, 0.47 ± 0.73 for the second.

First: ERAKRSY
Second: ERFLFGSMSTYANGRCVGAY
The amyloid nucleation score of the first is higher: 3.04 ± 0.069 for the first, -1.11 ± 2.4 for the second.

With DLSFLRNCSLYSLLGVIG the amyloid nucleation score was “inactive”.
For DLYQCVHPMFHVWVCVTAGW, the amyloid nucleation score was “inactive”.
With DNTSCLW the amyloid nucleation score was “inactive”.
For DNWSMDVLFLWMASLGNKYR, the amyloid nucleation score was “inactive”.
With DPFAHYISVYRDSHSVYLSS the amyloid nucleation score was “inactive”.
In the case of DRVLAVVYAAFAGFRRCMRR, the amyloid nucleation score is reported as “inactive”.
With DSRYYTDADALVDR the amyloid nucleation score was “inactive”.
In the case of DSTDSVESEWNTVRSYVSLW, the amyloid nucleation score is reported as “inactive”.
In the case of DTAFMNMMLWARNYCWFSVQ, the amyloid nucleation score is reported as “inactive”.
For EMRNLNLYVLAEPNGVGNSA, the amyloid nucleation score was “inactive”.
With EPTDYWRVY the amyloid nucleation score was “inactive”.
